The target of assay [1] is T1, CD3 on CD8 T cells (Homo sapiens (Human), UniProt P07766 23-207).
T1 construct: Native CD3 complex on CD8 T cells among PBMCs; also called T cells (PBMCs gated with anti-human CD8 antibody)
Briefly: flow cytometry, CD8 T cells in PBMCs, binding ratio % [panel A].

The target of a further assay is T2, Trop2 protein (UniProt P09758 27-274).
T2 construct: Bought recombinant protein; also called Trop2-Biotin protein (biotin-labelled, bridging ELISA)
T2 sequence (looked up): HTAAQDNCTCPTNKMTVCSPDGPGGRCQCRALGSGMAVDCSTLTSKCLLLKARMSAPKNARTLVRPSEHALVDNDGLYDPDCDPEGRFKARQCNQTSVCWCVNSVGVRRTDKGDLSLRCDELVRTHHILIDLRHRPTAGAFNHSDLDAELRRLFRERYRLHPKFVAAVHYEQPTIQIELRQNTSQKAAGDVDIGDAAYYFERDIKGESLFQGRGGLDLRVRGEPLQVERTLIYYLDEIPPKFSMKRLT
Put plainly: ELISA, coated Trop2 protein, OD450. An outline of the steps: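 Plates coated overnight at 4° C with Trop2 at 2 μg/ml, blocked with PBS/10% BSA; serially diluted bispecifics bound 1 h at 37° C. Detection by HRP anti-human Fab secondary, TMB 3 min, acid stop, OD450.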

Assay [2] concerns the target T1, CD3 on CD8 T cells. Put plainly: flow cytometry, CD8 T cells in PBMCs, MFI [panel B]. As for the experimental part:
(1) PBMCs were diluted to 2×10⁶/ml with PBS and added to a 1.5 ml EP tube at 100 μl/tube, goat serum was added thereto at 10 μl/tube. The cells were blocked at 4° C. for 30 min. The serially diluted bispecific antibodies, Cross3×Trop2, Cross303×Trop2, Cross307×Trop2, Cross308×Trop2, Cross309×Trop2, Cross310×Trop2, Cross311×Trop2, Cross312×Trop2, Cross313×Trop2, Cross314×Trop2, Cross316×Trop2, Cross317×Trop2, Cross318×Trop2, Cross323×Trop2, Cross325×Trop2, Cross326×Trop2, Cross3×PDL1, Cross313×PDL1, Cross316×PDL1, Cross325×PDL1, and control hIgG1LALA (purchased from Bio-Tech) were added and incubated at 4° C. for 30 min. 1 ml of PBS was added to the EP tube, followed by centrifugation at 3500 rpm for 5 min at 4° C. The supernatant was discarded, and the system was washed again with PBS. After centrifugation, the supernatant was discarded, and the cells were resuspended with PBS at 100 μl/tube. 1 μl/tube Alexa-647-labeled goat anti-human IgG secondary antibody (purchased from Jackson lab) and 0.5 μl/tube PerCP-Cy5.5-labeled anti-human CD8 antibody were added and incubated at 4° C. in the dark for 30 min. The cells were washed twice with PBS. After centrifugation, the supernatant was discarded. The cells were resuspended with 200 μl/tube of PBS and assay is performed by flow cytometry.

Another assay has as its target T3, CD3E&D protein (UniProt P04234 22-105).
T3 construct: Purchased from Acro; also called CD3 E&D antigens; CD3E&D antigen protein
Put plainly: ELISA, coated CD3E&D protein, OD450. The source says: In this example, the binding properties of the CD3×Trop2 and CD3×PDL1 bispecific antibody (the production method and the amino acid sequences of the heavy and light chains were shown in Example 1) were detected by using ELISA. The CD3E&D, Trop2, or PDL1 protein was coated onto 96-well plates by inventors, and the strength of the signal after the addition of the antibody was used to determine the binding properties of the antibody and the corresponding protein.
(1) CD3E&D protein (purchased from Acro) was diluted to 2 μg/ml with PBS buffer, added to a 96-well plate at a volume of 100 μL/well, and placed at 4° C. overnight. The PBS buffer in the 96-well plate was aspirated, and the plate was washed 6 times with PBST (pH 7.2 PBS containing 0.1% Tween 20) buffer. Then, 200 μL/well PBS/10% BSA was added and incubated at 37° C. for 2 h for blocking. The blocking solution was removed, and the plate was washed 6 times with PBST. […] The absorbance was read at 450 nm using a microplate reader.

This is an account of results in patent publication US20260125472A1 (HEFEI TG IMMUNOPHARMA, published 2026).

T1 sequence (P07766 23-207 limits assumed): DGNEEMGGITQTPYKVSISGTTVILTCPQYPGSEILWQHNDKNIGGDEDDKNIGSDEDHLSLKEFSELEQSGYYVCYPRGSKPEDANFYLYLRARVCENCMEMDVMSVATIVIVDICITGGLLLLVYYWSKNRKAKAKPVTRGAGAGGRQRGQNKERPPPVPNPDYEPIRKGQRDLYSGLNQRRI
T3 sequence (chain, as listed by the source limits assumed, chain 1 of 2): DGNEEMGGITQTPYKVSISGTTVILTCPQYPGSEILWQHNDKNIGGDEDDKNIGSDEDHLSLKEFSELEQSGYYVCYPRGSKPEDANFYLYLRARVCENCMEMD
T3 sequence (P04234 22-105 limits assumed, chain 2 of 2): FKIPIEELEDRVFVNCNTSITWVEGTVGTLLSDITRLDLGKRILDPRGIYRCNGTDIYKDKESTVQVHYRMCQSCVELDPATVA

B1: Cross311×Trop2 (bispecific antibody)
scFv: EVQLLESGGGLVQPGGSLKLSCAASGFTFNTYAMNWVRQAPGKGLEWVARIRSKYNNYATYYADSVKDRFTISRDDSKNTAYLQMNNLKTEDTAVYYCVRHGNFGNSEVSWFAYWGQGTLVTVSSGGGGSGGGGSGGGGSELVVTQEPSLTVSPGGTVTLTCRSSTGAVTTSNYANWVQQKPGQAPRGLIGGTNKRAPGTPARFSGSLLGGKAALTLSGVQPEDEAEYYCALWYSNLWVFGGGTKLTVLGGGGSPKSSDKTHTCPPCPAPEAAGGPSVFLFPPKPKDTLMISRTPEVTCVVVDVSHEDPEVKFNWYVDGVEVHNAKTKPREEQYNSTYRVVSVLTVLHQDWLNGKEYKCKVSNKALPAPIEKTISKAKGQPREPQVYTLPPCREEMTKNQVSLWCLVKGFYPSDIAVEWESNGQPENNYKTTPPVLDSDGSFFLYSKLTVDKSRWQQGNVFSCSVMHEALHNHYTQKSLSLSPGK
heavy: QVQLQQSGSELKKPGASVKVSCKASGYTFTNYGMNWVKQAPGQGLKWMGWINTYTGEPTYTDDFKGRFAFSLDTSVSTAYLQISSLKADDTAVYFCARGGFGSSYWYFDVWGQGSLVTVSSASTKGPSVFPLAPSSKSTSGGTAALGCLVKDYFPEPVTVSWNSGALTSGVHTFPAVLQSSGLYSLSSVVTVPSSSLGTQTYICNVNHKPSNTKVDKKVEPKSSDKTHTCPPCPAPEAAGGPSVFLFPPKPKDTLMISRTPEVTCVVVDVSHEDPEVKFNWYVDGVEVHNAKTKPREEQYNSTYRVVSVLTVLHQDWLNGKEYKCKVSNKALPAPIEKTISKAKGQPREPQVCTLPPSREEMTKNQVSLSCAVKGFYPSDIAVEWESNGQPENNYKTTPPVLDSDGSFFLVSKLTVDKSRWQQGNVFSCSVMHEALHNHYTQKSLSLSPGK
light: DIQLTQSPSSLSASVGDRVSITCKASQDVSIAVAWYQQKPGKAPKLLIYSASYRYTGVPDRFSGSGSGTDFTLTISSLQPEDFAVYYCQQHYITPLTFGAGTKVEIKRTVAAPSVFIFPPSDEQLKSGTASVVCLLNNFYPREAKVQWKVDNALQSGNSQESVTEQDSKDSTYSLSSTLTLSKADYEKHKVYACEVTHQGLSSPVTKSFNRGEC
Take B1: the “EC50 (read off the curve)” value was around 0.7 µg/mL with CD3 on CD8 T cells [1], around 0.008 µg/mL with Trop2 protein, around 4 µg/mL with CD3 on CD8 T cells [2] and around 0.04 µg/mL with CD3E&D protein.
